The record followed here is paper PMC11705074.

For series [1], the target named is T1, HhpR (Pyrococcus yayanosii A1, UniProt F8AFU3 1-281).
T1 sequence: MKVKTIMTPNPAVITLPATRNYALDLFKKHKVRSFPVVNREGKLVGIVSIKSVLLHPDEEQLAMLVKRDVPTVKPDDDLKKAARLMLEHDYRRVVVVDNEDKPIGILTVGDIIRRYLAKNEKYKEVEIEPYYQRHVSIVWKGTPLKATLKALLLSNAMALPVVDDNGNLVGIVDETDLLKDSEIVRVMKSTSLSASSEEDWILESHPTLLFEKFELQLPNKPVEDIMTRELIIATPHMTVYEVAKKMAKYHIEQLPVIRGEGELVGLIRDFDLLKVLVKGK
The series is described as follows: fluorescence polarization. A general note: Polarisation of emitted light reports the rotation of a fluorescent probe.

Series [2] has as its target T1, HhpR. The experiment in a line: fluorescence polarization. The source holds these as a separate data set.

Read-outs that look alike come from different tables or passages of the source.

B1: 44-bp Phhp (dsDNA)
DNA 1: CATATAAAAATTGTTGGGCAAATCTGCCCAGAAAAGCTTAAAAG
DNA 2: CTTTTAAGCTTTTCTGGGCAGATTTGCCCAACAATTTTTATATG
The Kd is the concentration at which binding is half-saturated. Read a high Kd as lower affinity. As to B1, the figures for the Kd in series [1] and in series [2] were 1900 ± 400 nM and 650 ± 370 nM, respectively.
